Common to all, as to assay: mass photometry
In series [1] the target is At2-CysPRXA F84R variant (Arabidopsis thaliana).
In series [2] the target is At2-CysPRXA C54S variant (Arabidopsis thaliana).
Series [3] deals with the molecule itself.
Series [4] deals with the molecule itself. This is another data set of the same source.
Series [5] deals with the molecule itself. The source holds these as a separate data set.
Series [6] deals with the molecule itself. The source holds these as a separate data set.
Series [7] concerns the molecule itself. This is another data set of the same source.

“And” between values parts separate entries of the source, which are not always exact repeats. Equal entries are not always repeated. Where two headings read alike, the source gives them in different places.

As usually defined, the stoichiometry N is the number of molecules, sites or subunits per partner or assembly. Consider At2-CysPRXA F84R variant (enzyme), for which the stoichiometry N in series [1] was 2 and 4.

At2-CysPRXA C54S variant (enzyme) came in with a stoichiometry N in series [2] of 10.

B1: human peroxiredoxin HsPRX2, reduced (enzyme, UniProt P32119 1-198, looked up)
chain: MASGNARIGKPAPDFKATAVVDGAFKEVKLSDYKGKYVVLFFYPLDFTFVCPTEIIAFSNRAEDFRKLGCEVLGVSVDSQFTHLAWINTPRKEGGLGPLNIPLLADVTRRLSEDYGVLKTDEGIAYRGLFIIDGKGVLRQITVNDLPVGRSVDEALRLVQAFQYTDEHGEVCPAGWKPGSDTIKPNVDDSKEYFSKHN
Consider B1, for which the “stoichiometry N” value stood at 20 in “mass photometry [3]” and 2 in the series “mass photometry [4]”.

B2: human peroxiredoxin HsPRX1, reduced (enzyme, UniProt Q06830 1-199, looked up)
chain: MSSGNAKIGHPAPNFKATAVMPDGQFKDISLSDYKGKYVVFFFYPLDFTFVCPTEIIAFSDRAEEFKKLNCQVIGASVDSHFCHLAWVNTPKKQGGLGPMNIPLVSDPKRTIAQDYGVLKADEGISFRGLFIIDDKGILRQITVNDLPVGRSVDETLRLVQAFQFTDKHGEVCPAGWKPGSDTIKPDVQKSKEYFSKQK
Regarding B2, the “stoichiometry N” value in the series “mass photometry [4]” came out at 10.

B3: human peroxiredoxin HsPRX3, reduced (enzyme, UniProt P30048 62-256, looked up)
chain: APAVTQHAPYFKGTAVVNGEFKDLSLDDFKGKYLVLFFYPLDFTFVCPTEIVAFSDKANEFHDVNCEVVAVSVDSHFSHLAWINTPRKNGGLGHMNIALLSDLTKQISRDYGVLLEGSGLALRGLFIIDPNGVIKHLSVNDLPVGRSVEETLRLVKAFQYVETHGEVCPANWTPDSPTIKPSPAASKEYFQKVNQ
For B3, the “stoichiometry N” value in “mass photometry [3]” is 40 and 20; in “mass photometry [4]” it was 2.

B4: At2-CysPRXA, oxidized (H2O2-treated) (enzyme, Arabidopsis thaliana, UniProt Q96291 66-266, looked up)
chain: KAQADDLPLVGNKAPDFEAEAVFDQEFIKVKLSDYIGKKYVILFFYPLDFTFVCPTEITAFSDRHSEFEKLNTEVLGVSVDSVFSHLAWVQTDRKSGGLGDLNYPLISDVTKSISKSFGVLIHDQGIALRGLFIIDKEGVIQHSTINNLGIGRSVDETMRTLQALQYIQENPDEVCPAGWKPGEKSMKPDPKLSKEYFSAI
modifications: disulfide bond of the peroxidatic cysteine (CysP54) with the resolving cysteine (CysR176)
For the molecule B4, the “stoichiometry N” value in “mass photometry [5]” was 2.

B5: At2-CysPRXA, hyperoxidized (H2O2 plus DTT) (enzyme, Arabidopsis thaliana, UniProt Q96291 66-266, looked up)
chain: KAQADDLPLVGNKAPDFEAEAVFDQEFIKVKLSDYIGKKYVILFFYPLDFTFVCPTEITAFSDRHSEFEKLNTEVLGVSVDSVFSHLAWVQTDRKSGGLGDLNYPLISDVTKSISKSFGVLIHDQGIALRGLFIIDKEGVIQHSTINNLGIGRSVDETMRTLQALQYIQENPDEVCPAGWKPGEKSMKPDPKLSKEYFSAI
modifications: C54 thiol hyperoxidized to a sulfinic acid residue
Consider B5, for which the “stoichiometry N” value in “mass photometry [5]” amounted to 10.

B6: Arabidopsis thaliana 2-Cysteine peroxiredoxin A (At2-CysPRXA), wildtype, reduced (enzyme, UniProt Q96291 66-266, looked up)
chain: KAQADDLPLVGNKAPDFEAEAVFDQEFIKVKLSDYIGKKYVILFFYPLDFTFVCPTEITAFSDRHSEFEKLNTEVLGVSVDSVFSHLAWVQTDRKSGGLGDLNYPLISDVTKSISKSFGVLIHDQGIALRGLFIIDKEGVIQHSTINNLGIGRSVDETMRTLQALQYIQENPDEVCPAGWKPGEKSMKPDPKLSKEYFSAI
One may read the Kd as a measure of binding affinity in units of concentration. A higher Kd goes with a looser complex. With B6, the “ratio of dimer units in the decameric fraction to those in the dimer fraction” value in “mass photometry [6]” is around 5 fold. In addition, in “mass photometry [7]”, the Kd is below 50 nM and the “stoichiometry N” value was 20.

The values are drawn from doi:10.1101/2021.01.30.428949 (bioRxiv, 2021).
